Assay: yeast display, Sf9 membrane polyspecificity reagent, FACS + sequencing; frameworks hold sequencing errors
In short: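 Nanobodies came from a synthetic yeast display library in Saccharomyces cerevisiae BJ5465, induced with galactose for 36–48 hours and stained for 1 hour at 4 °C with 10% biotinylated, detergent-solubilized Sf9 membrane reagent. Cells were enriched on streptavidin microbeads and then FACS-sorted, with low and high (top ~1%) gates set on anti-HA fluorescence for expression and streptavidin fluorescence for reagent binding. Each polyreactivity label reflects the gate a clone came from. Genes were amplified by colony PCR, sequenced by MiSeq 2 × 250 and filtered by CDR length.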

| Sequence | polyreactivity (PSR sort gate) |
| --- | --- |
| QVQLVESGGGLVQAGGSLRLSCAASGFTFRGNAMGWYRQAPGKERELVAAITSSGGRTYYADSVKGRFTISRDNAKNTVYLQMNSLKPVDTAVYYCAARYAYPSRYYYWGQGTQGTVSS | high polyreactivity |
| QVQLVESGGGLVQAGGRLRLTCAASASIFYYYTMGWYRQAPGKERELVAAINSIGGRTYYADSVKGRFTISRDNAKNTVYLQMNSLKQEDNAVYYCNAVLDPGDQDDYDYWGQGTQVTLSS | low polyreactivity |
| QVQLVESGGGLVQAGGSLRLSCAASGFTFRRYAMGWYRQAPGKERELVAAISIRGGRTYYADSVKGRFTISRDNAKNTVYLQMNSLKPEVTAVYYCAAAPVGYGKRFYYWGQGTQVTVSS | high polyreactivity |
| QVHHVESGGGLVQAGGSLRLSCAASGITFSSYAMGWYRQAPRKERELVAAISYGGGNTYYADSVKGRFTISRDNAKNTVYLQMNSLKPEDTAVYYCNTLYTSYSGLDYWGQGTQVTVSS | high polyreactivity |
| QVQLVESGGGLVQAGGSLRLSCAASGRTFQHYVMGWYRQAPGKERELVDSITNDDSTNYADSVKGRFTISRDNAKITVYLQMNRLKPEDTAVYYCNFDDWGTPVEPGDYDYWGQGTQVTVSS | low polyreactivity |
| QVQLVESGGGLVQAGGSLRLSCAASGRTFTRYTMGWYRQAPGKERELVAAITRGGSTYADSVKGRFTISRDNAKNTVYLQMNSMKPEDTAVYYCAAYWGFYPWRAYPYDYWGQGTQVTVSS | high polyreactivity |
| QVQLVESGGGLVQAGGSLRLSCAASGSIFTYNAMGWYRQAPGKERELVAAITGDDITNYADSVKGRFTISRDNAKNTVYLQMNSLKPEYTAVYYCARDQWVFGSSPVQAGEYWGQGTQVTVSS | low polyreactivity |
| QVQLVESGGGIVQAGGSLRLSCAASVFTFLHNTMGWYRQAPGKERELVAAISIGGRTYYADSVKGRFTISRDIAKKTVYLQMNSLKPEDTAVYYCAKLSGGQSPGYDYWGQGTQVTVSS | high polyreactivity |
| QVQLVESGGGLVQAGGRLRLSCAASGLIFDDYAMGWYRQAPGKERALVAAIDWGGGSTYYADSVKGRFTISRDNAKNTVYLQMNSLTPEHTAVYYCAADSYFSYRYNYWGQGTQVTVSS | low polyreactivity |
| QVQLVESGGGLVQAGGSLRLSCAASGFTFLAYAMVWYRQAPGKERELVAAIRWSGGRTYYADSVKGRFTISRDNAKNTVYLQMNSLKPEDTAVYYCAADTRRVREYNYWGQGTQVTVSS | low polyreactivity |
| QEQLVESGGGLDQAGGSLRLSCAASGSTFSGYALAWYRQAPGKERELVAAISWRGVRTYYADSVKGRFSISRDNAKNRVYLQMNSLKPEDNAVYYCAAVGYITKEFYWGQGTKVTVSS | high polyreactivity |
| QVQLVESGGGLVQAGGSLRLSCAASGSTLPYYAMGWYRQAPGKERELVAAITSSGGDTYYADSVKGRFTISRDNAKNTVYFQMNSLKPEDTAVYYCAKSYSARSTVRKLFYFAYDYWGQGTQVTVSS | low polyreactivity |
| QVQLVESGGGLVQAGGSLRLRCPASGFIFFWNTMGWYRQAPGKERELVAAISQSGDSTYYADSVKGRFTISRDSAKNTVYLQMNSLKPEDTAVYFWAADKKTITYRYDYWGLGTQVTVSS | low polyreactivity |
| QVQLVESGGGLVQAGGSLRLSCAASGFTFGVYAMGWYRQAPGKERELVAAISTTVGSTYYADSVKGRFTISRDNAKNTVYLEMNSLKPEDTAVYYCAAEYTGYINYYIYEYWGQGTQVTVSS | low polyreactivity |
| QVQLVESGGCLVQAGGSLRLSCADSGIIYYYYAMGWYRQAPGKERELVAAISTSGGRTYYADSVKGRFTISRDNAKNTVYLQMNSLKPEDTAVYYCAADYLKGEEDYWGQGTQVSVSS | low polyreactivity |
| QVQLVESGGGLVQAGGSLRLSCAASGSTFKRNAMGWYRQAPGKERELVAAITSGGSTYYADSVKGRFTISRDNAKNTVYLQMNSLKPEDTAVYYCNKVRGAFYSHLFDYWGQGTQVTVSS | high polyreactivity |
| QVQLVESGGGLVQAGGSLRLSCAASGVYAMGWYRQAPGQERELVAAITSVGSTNYADSVKGRFTISRDNAKNTVYLQMNSLKPEDTAVYYCNTDRDTDELDYWGQGTQVTVSS | low polyreactivity |
| QFQLVESGGGLVQAGGSLRLSCAASGSIFKRYAMGWYRQAAGKERELVAAISSRGGNTYYADSVKGRFTISRDNAKNTVYLQMNSLKPEDTAVYYCAAYLWKSKRKLDYWGQGTQVTVSS | high polyreactivity |
| QVQLVESGGGLVQAGGSLRLSCAASGRTFRWYAMGWYRKAPGKEWELVAAISYRGGSTYADSVKGRFTISRDNEKNTVNLQMNSLKPEDTAVYYCAAKYYDYGPYYYWGQGTQETVSS | high polyreactivity |
| QVQHVESGGGLVQSGGSLRLSCAASGSIFGKYSMGWYRQAPGKERELVAAISDSGSITYYADSVKGRLTISRDNAMYTFYLQMNSLKPEDTAVYYCAAEVNYYQRFKYEYWGQGTQVTVSS | high polyreactivity |
| QVQLVESGGGLVQAGGSLRLSCAASGRIFGLYLGWYRQAPGKERELVATITWRGGSTYYADSVKGRFTISRDNAKNTVYLHLNSVKPEDTEVYYCAARGYRGRMGYWGQGTQVTVSS | low polyreactivity |
| QVQLVESGGGLVQAGGSLRLSCAASGSIFYTYAMGWYRQAPGKERELVAAINWSGGRTYYADSVKGRFTISRDNAKNTVYLQMNSLTPEDTAVYSCAARRGRSWGGFDYWGQGTQVTVSS | low polyreactivity |

| Sequence | polyreactivity (PSR sort gate) |
| --- | --- |
| QVQLVESGGGLVQAGGSLRLSCAASGYNFFSYAKGWYRQPPGKERELVAAISRGGRTYYADSVKGRFTISRDNAKNTVYLQMKILKPEDTAVYYCNAVSTPGKYGYWGQGTQVTVSS | high polyreactivity |
| QVQLVESGGGLVQAGGRLSLSCAASGSIFNQYAMGWHRQAPGKERELVAAISSDGGRTYYADSVKGRFTISRDNAKITVYLQMNSLKPEDTAVYYCNADFPAYGLECDVYWGQGTQVTVSS | low polyreactivity |
| QVQLVESGGGLVQAGGSLRLSCAASGRTFRFYAMGWYRQAPGKERELVAAITYRGGTYYADSVKGRFTISRDNAKNTVYLQMNSLKPEDTAVYYCAVKPSGWSGMDYWGQGTQVTVSS | high polyreactivity |
| QVQLVESGGCLVQAGGSHRLSCAASGRTFGYNAMGWYSQAPRKERELVAVIRSGGSTYYADSVKGRYTISRDNAKNTVYFQMNSLKPEDTAVYYCAATGLYNVTSPYSYKYDYWGQGTQVTVSS | low polyreactivity |
| QVQLVESGGGLVQAGGSLRLSCAASGSIFGINVMGWYRQAPGKERELVAAITSGTSTYYADSVKGRFTISRDNANNTVYLQMNSLKPEDTAVYYCAALWSSRYVVHPQWYDYWGQGTQVTVSS | low polyreactivity |
| QVQLVESGGGLVQAGGSLRLSCAASGRIFSLNTMGWYRQAPGKERELVATITKRGGNTYYADSVKGRFTISRDNAKNTVYLQMNSLKPEDTAFYYCAVPRSITYRYGYWGQGTQVTVSS | high polyreactivity |
| QVQLEESGGGIVQAGGSLRLSCAASGRIFRIYAMGWYRKAPGKERELVARITYSGGSTYYADSVKGRFTISRDKAKNTVYLQMNSLKPEDTAVFYCAADWLFYQYGYWGQGTQVTVSS | low polyreactivity |
| QVQLVETGRGLVQEGGSLRLICAASGRTFYIYAMGWYRQAPGKERDLVAAISWGSGSPYYADSVKGRFTISRDNAKNTVYLQINSLKPEDTAVYYFAAEYAFPSEWTYDYWGQVTQVTVSS | low polyreactivity |
| QVQLVESGGGLVQAGGSLRLSCAASGSILRFNSMGWYRQAPGKERELVATITKGGGRTNYADSVKGRFTISRDNAKKTVYLQMNSLKPQDTSVYYCAEKFIYARYGTFQTDYKIYDYWGQGTQVTVSA | high polyreactivity |
| QVQLVESGGGLVQAGGSLRLSCAASGITFRTYAMGWNRQAPGKERELVAAITRRGGSTYYADSVKGRFTISRDNAKNTVYLQMNSLKPEDTAVYYCAVRHNGIQASVGYDYWGQGTQVTVSS | high polyreactivity |
| QVQLVESGGGLVQAGGSLRLSCAASGRTFALNVMGWYRQAPGKERELVAAISRSGGSTYYADSVTGRFTISRDNAKNTVYFQMNSLKPEDTAVYYGAAATHYQSYNRRDYWGEGTQVTVSS | high polyreactivity |
| QVQLVESGGGLVQAGGSLRLSCAASGSIFYSNAMGWYRQAPGKEREFVAAISAGGGSTYYADSVKGRFTISRDNAKNTVYLQMNSLKPEDTAVYYCAATDEYYIQVWFPYDYWGQGTQVTVSW | low polyreactivity |
| QVQLVESGGGLVQAGGSLRLSCAASGSIFGFYAMGWYRQAPGKERELVAVISVSDGSTYYADSVKGRFTISRDNAKNTVYLQMNCLKPEDTAVYYCAATPRGSYGYYYWGQGTQVTVSS | low polyreactivity |
| QVQLQEGGGGLVQAGGSLRLSCAASGYIFNGDWKGWYRQAPGKERELVATINYGATTNYADSVKGRFTISRDNAKNTVYLQMNSLKPEDTAVYYCAVGGHGAQLYVYWGQGTQVTVSN | high polyreactivity |
| QVQLVVSGGGLVQAGGSLRLSCATTGRIFHRSAMGWYRQAPGKERGLVAGISSSGGSTYADSVKGRFTISRDNAKNTVYLQMNSLKPEDTAVYYCAAKWRHSGGGMYYWGQGTQVTVSS | high polyreactivity |
| LVQLQESGGGLVQAGGSLRLSCAASGTISPGGNMGWYRQAPGKERELLASINVGGSTNYADSVKGRFTISRDNAINTVFLQMNSLKPDDNAVFYCAVWGRNRLQLSYWGQGTQVTVSS | low polyreactivity |
| QVQLVESGGGLVQAGGSLRLSCAASGLTFTINAMGWYRQAPGKERELVAAITGNNTSTYYADSVKGRFTISRDNAKNTVYLQMNSLKPEDTAVYYCAASVYHYGPLYYWGQGTQVTVSS | low polyreactivity |
| QVQLVESGGGLVQAGGSLRLSCAASGGIFGDYAMGWYRQEPGKERELVAAINSGDSTNYADSVKGRFTISRDNAKNTVYLQMNSLKPEDTAVYYCNARGYWVYYVEYDYWGQGTQVTVSS | low polyreactivity |
| QVQLVESGGGLVQAGGSLRLSCAASGFIDAYTMGWYRPAPGKERELVAAITWSGGRTSYADSVKGRFTISRDTAKNTVYLQMNSLKPEDTAGYYCAKDVTPYSPDDDYWGQGTQVTVSS | low polyreactivity |
| QVQLVESGGGLVQAGGSLRLSSAASGRISGYNMGWYRQAPGKERELVAAISNGGSTNYADSVKGRFTISRDNAKNTVYLQMNSLKPEDTAVYYCNRRVPYSFYSRGYYYWGQGTQVTVSS | high polyreactivity |
| QVQLVESGGGLVQAGGSLRLSCAASGSTFDSYAMGWYRQAPGKEGELVAAITGGGDTNYADSVKGRFTISRDNAKNTVYLQMNSLKPEDTAVYYCAAYQRRGNYQMDYWGQGTQVTVSS | low polyreactivity |

Source: the nanobody polyreactivity screen of Harvey et al. (2022)
